The text below walks through data of publication PMC9942802.

For this assay, the target named is tube protein gp14 (cyanophage Pam3). Put plainly: cryo-EM structure.

For the substance tube protein gp14 (natural protein), the stoichiometry N turned out to be 6.
